Data taken from patent US12559545 (VANDERBILT UNIVERSITY, dated 2026).
Where a chain is given by its changes, count along the chain named.

B1: HENV-226 (antibody, V domains shown)
VH: EERLVQSGGGLAQPGQSLRLSCAGFGFTFTRYEMNWVRQAPGKGLEWIAHISTRGDTISYADSVKGRATISRDDTNNSLDLQMDSLRAEDTAIYFCARDRGSLSTRPPDSYHYYYHGMDVWGQGTTVIVSS
VL: EIVLTQSPATLSLSPGERATLSCRASQSIDTYLAWYQQKPGQAPRLLIYDASNRATGIPARFSGSGSGTDFSLTISSLEPDDFAVYYCQQRSNRPPRYTFGLGTRLEIK
B2: HENV-242 (antibody, V domains shown)
VH: QVQLVQSGAEVKKPGSSVTVSCKTSGGTFSGYAVSWVRQAPGQGLEWMGRIVPQFNIPNYAQKFQDRVTITADESTGTSYMELSSLRSDDTAVFYCARENIQTIFGVVAMMGGGGYFDSWGQGTLVTVSS
VL: DIQMTQSPSSLSASVGDRVTITCQANQDINTYLNWYLQKPGKAPQLLVFDASNLVTGVPSRFSGGGSRTDFTLTIDSLQPEDIGTYYCQQYDHLPRRTFTFGPGTKVDLK
B3: HENV-170 (antibody, V domains shown)
VH: EVQLLESGGGLVQPGGSLRLSCAASGFTFSSYTMSWVRQAPGKGLEWVSGISGSGGNTYYAGSVKGRFTISRDNSKNTLYLQMNSLRAEDTAVYYCAKDGYTGQQLMRRGPWWFDPWGQGTLVTVSS
VL: SYVLTQPPSVSVAPGQTARITCGGNNIGSKSVHWYQQKPGQAPVLVVYDDSDRPSGIPERFSGSKSGNTATLTISRVEAGDEADYYCQVWDSSSDHVVFGGGTKLTVL
B4: HENV-150 (antibody, V domains shown)
VH: EVQLLESGGGLVQPGGSLRLSCAASGFTFSSSAMSWVRQTPGKGLEWVSTISGSGANTYYAASVKGRFPISRDNSKNTLFLQMNSLRAEDTAVYYCAKVSTVTFGGHVPRGSYFDYWGQGTQVTVSS
VL: B3 VL with T21P, D50E, S51N, G63A, S93R, V97Y, G101T, L105V
B5: HENV-141 (antibody, V domains shown)
VH: QVQLVQSGAEVKKPGSSVKVSCKASGGTFSSYTISWVRQAPGQGLEWMGRIIPISGITNYAQKFQGRVTITADKSTSTAYMELSSLRSEDTAVYYCAKDCYYGSGTYYGCRADYQWHHTMDVWGQGTTVTVSS
VL: DIQMTQSPSSLSASVGDRVTITCRASQGIRNDLGWFQQKPGKAPKRLIYAASSLQSGVPSRFSGSGSGTEFTLTISSLQPEDFATYFCLQHNTYPLTFGQGTKVEIK
B6: HENV-99 (antibody, V domains shown)
VH: QVLLVQSGAEVRKPGASVKVSCRASGYTFTDYYMHWVRQAPGQGLEWMGWINPNSGATKYAQKFQGRVTLTRDTSINTAYMELSGLRSVDTAVFYCASVPPSGFFYWGSDYWGQGTLVTVSS
VL: DVVLTQSPLSLPVTLGQPASISCRSSQSLVYSDGTTYLNWFQQRPGQSPRRLIYKVSYRDSGVPDRFSGSGSGTDFTLEISRVEAEDVGIYYCMHGTHWETWTFGQGTKVEIK
B7: HENV-117 (antibody, V domains shown)
VH: QVQLQQWGAGLLKPSETLSLTCDLSGGSFTNYYWTWIRHLPGKGLEWLGEINHSGRTNYSPSLKSRVTISVDTSKNQFSLRLSSVTAADTAVYYCARDIRKLAPKPHSYDLYYGMDVWGQGTTVTVSS
VL: EIVLTQSPGTLSLSPGERATLSCRASQSVGSNYLTWYQQKPGQPPRLLIYGASNRAAGIPDRFSGSGSGTDFTLTISRLEPEDFAVYYCQQYETSSRTFGQGTKVDIR
B8: HENV-58 (antibody, V domains shown)
VH: QVQLVQSGAEVKKPGSSVKVSCKASGGTFSNYVISWVRQAPGQGFEWMGRIIPMIGISNYAQKFQDRVTITADKDESTTTAYMELRGLRSEDTAMYYCASSTVTEVGAWGQGTLVTVSS
VL: AIQLTQSPSSLSASIGDRVTITCRASQGISSALAWFQQKPGKPPILLIYDASSLESGVPARFSGSGSGTDFTLTISSLQPEDFATYYCQQFYNHPLTFGPGTKVDIK
B9: HENV-100 (antibody, V domains shown)
VH: QVQLVQSGAEVKKPGASVKVSCKASGYTFTSYYINWVRQAPGQGLEWVGTINPSGGSTTYAQKFQGRVTVTRDTSTSTVYMDLSGLRSGDTAVYYCARDRKGLAATPVYSDYYYGMDVWGQGTTVTVSS
VL: EIVLTQSPATLSLSPGERATLSCRASQSVSSFLAWYQQKPGQAPRLLISDASKRATGIPARFSGSGSGTDFSLTISSLEAEDFAVYYCQQSTNWRITFGQGTRLELK
B10: HENV-184 (antibody, V domains shown)
VH: QVQLVQSGTEVKNPGSSVKVSCKASGGTFSGFGISWVRQAPGQGLEWMGGVLPIFGSPNYAQKFQGRVTITADESTGTAYMDLSSLRSDDTAMYYCARDQSGGFFDYWGQGTLVIVSS
VL: EIVLTQSPATLSLSPGERATLSCRASQSVSSNLAWYQQKPGQAPRLLIYDASDRATGVPARFSGSGSGTDFTLTISSLEPEDFALYYCQQRYNWRVTFGQGTRLEIK
B11: HENV-222 (antibody, V domains shown)
VH: QVQLQESGPGLVKPSETLSLTCTVSGGSIDSYYWSWIRQPAGKGLEWIGRIYPSGTTNYNPSLKSRVTMSVDTSKNQFSLKVTSVTAADTAVYYCARMQTGFGSSLFFVPYFDNWGQGTLVTVSS
VL: B10 VL with N32Y, D53N, V58I, L85V, Y92G, R95P, V96L, Q100G, R103K, L104V
B12: HENV-103 (antibody, V domains shown)
VH: QVQLQGSGPGLVKPSQTLSLTCSVSGGSVSRSGYYWGWIRQHPGKGLECIGYIYYSGITYYNPSLSGRLTISVDTSKNQFSLELSSVTAADTAVYYCARVWLGGGVFDFWGQGSLVTVSS
VL: EIVMTQSPATLSVSPGEGATLSCRASQSVSSNLAWYQQKPGQAPRLLIYDASTRATGIPARFSGSGSGTEFTLTISSLQSEDFAVYYCQQYNDWRTFGRGTKVEMR
B13: HENV-98 (antibody, V domains shown)
VH: AVQLVESGGGLVQPGGSLRLSCEASGFTFSGYWMSWVRQAPGKGLEWVANIKGDGSEKYYVDSVKGRFTIFRDNAKTSLYLQVNSLRAEDTAVYYCARERHFLAARPGYYIYSGLDVWGPGTTVTVSS
VL: DIQMTQSPSSLSASVGDRVTITCRASQSIDNYLNWYQQKPGKVPKLLIYAASNLQSGVPSKFSGGGSGTDFTLTISSLQPDDFATYYCQQSFGTPRTFGQGTRVEIK
B14: HENV-142 (antibody, V domains shown)
VH: QVRLQESGPRLVKPSQTLSLTCTVSGGSISSRDYYWSWIRQHPGKGLEWIGYIYYSGTTYYNPSLESRVTLSLDTSKNQFSLDLTSVTAADTAVYHCARVWLGGGVFDFWGQGTLVTVSA
VL: EIVMTQSPDTLSVSPGERATLSCRASHSVTTNLAWYQQRPGQAPRLLIFDASTRATGIPARFSGSGSGTEFTLTIGSLQSEDFAVYYCQQYNDGRTFGQGTKVEIK
B15: HENV-122 (antibody, V domains shown)
VH: EVQLLESGGGLVQPGGSLRLSCAASGFTFSTNAMSWVRQAPGKGLEWVSTVSGSGAHPNYGDSVKGRFTISRVNSKNTLFLQMSSLRAEDTAIYYCARVSTVTVGGHIPRGYYFDYWGQGTLVTVSS
VL: EILLTQSPGTLSLSPGERATLSCRASQSASSSYLAWYQQKPGQAPRLLIYGASTRATGIPDRFSGSGSGTEFTLTISRLESEDFAVYYCHHYGSSRTFGQGTKVEVK

Biological target: T1, NiVM-G
T1 chain: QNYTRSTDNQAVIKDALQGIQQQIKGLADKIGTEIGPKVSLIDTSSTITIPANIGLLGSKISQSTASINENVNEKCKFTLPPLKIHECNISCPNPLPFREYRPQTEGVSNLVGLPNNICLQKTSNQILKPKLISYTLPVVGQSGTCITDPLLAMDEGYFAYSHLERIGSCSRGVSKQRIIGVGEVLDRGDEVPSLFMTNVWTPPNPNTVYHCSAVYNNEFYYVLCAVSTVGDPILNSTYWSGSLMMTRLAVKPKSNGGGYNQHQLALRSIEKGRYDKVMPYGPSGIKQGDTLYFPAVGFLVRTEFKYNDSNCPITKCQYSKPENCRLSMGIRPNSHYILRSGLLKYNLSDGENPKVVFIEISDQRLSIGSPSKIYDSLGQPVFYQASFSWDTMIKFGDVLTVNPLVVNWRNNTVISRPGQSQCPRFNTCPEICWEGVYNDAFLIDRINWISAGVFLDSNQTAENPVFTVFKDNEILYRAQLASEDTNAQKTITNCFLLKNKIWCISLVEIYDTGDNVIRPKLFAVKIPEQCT

Point of comparison: B2, EC50 0.716 nM. Against it:
- B1 — 2.8-fold lower, 0.259 nM
- B3 — 1.9-fold lower, 0.378 nM
- B4 — 2.7-fold lower, 0.27 nM
- B5 — 2.7-fold lower, 0.266 nM
- B6 — 2.4-fold lower, 0.294 nM
- B7 — 1.7-fold higher, 1.23 nM
- B8 — within 1.5-fold, 0.739 nM
- B9 — 2.3-fold lower, 0.316 nM
- B10 — within 1.5-fold, 0.622 nM
- B11 — within 1.5-fold, 0.586 nM
- B12 — within 1.5-fold, 0.611 nM
- B13 — 1.8-fold lower, 0.396 nM
- B14 — within 1.5-fold, 1.03 nM
- B15 — 1.8-fold lower, 0.407 nM

Biological target: T2, HeV-G
T2 chain: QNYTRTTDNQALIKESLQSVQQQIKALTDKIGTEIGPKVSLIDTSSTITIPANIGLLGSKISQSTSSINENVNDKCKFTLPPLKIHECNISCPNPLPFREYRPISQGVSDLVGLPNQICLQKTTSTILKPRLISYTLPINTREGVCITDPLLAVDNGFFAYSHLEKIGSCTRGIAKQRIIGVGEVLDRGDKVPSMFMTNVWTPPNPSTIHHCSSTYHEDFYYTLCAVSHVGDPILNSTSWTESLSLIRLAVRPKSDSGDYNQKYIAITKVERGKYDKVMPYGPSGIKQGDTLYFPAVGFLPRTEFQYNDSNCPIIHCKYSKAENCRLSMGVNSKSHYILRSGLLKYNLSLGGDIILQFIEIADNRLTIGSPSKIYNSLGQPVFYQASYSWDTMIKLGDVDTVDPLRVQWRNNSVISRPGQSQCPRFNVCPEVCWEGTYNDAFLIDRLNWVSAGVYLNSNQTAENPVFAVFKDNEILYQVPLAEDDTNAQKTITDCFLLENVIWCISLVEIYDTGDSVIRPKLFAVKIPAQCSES

Point of comparison: B15, EC50 0.387 nM. Against it:
- B2 — 17-fold higher, 6.6 nM
- B3 — within 1.5-fold, 0.518 nM
- B4 — within 1.5-fold, 0.328 nM
- B5 — within 1.5-fold, 0.326 nM
- B6 — within 1.5-fold, 0.42 nM
- B7 — 2.7-fold higher, 1.06 nM
- B8 — 2.9-fold higher, 1.14 nM
- B9 — within 1.5-fold, 0.469 nM
- B10 — 3.1-fold higher, 1.19 nM
- B11 — 15-fold higher, 5.66 nM
- B12 — 2.1-fold higher, 0.806 nM
- B13 — within 1.5-fold, 0.434 nM
- B14 — 4.8-fold higher, 1.86 nM
